Measured values published in article PMC8748450.

Biological target: apo-LgnD-C1-T1-C2 tridomain (truncated LgnD)
Assay: ITC; LgnA (125 µM) titrated into LgnD or truncated LgnD (25 µM), also into LgnB (concentrations for LgnB not told); thirteen 3 µL injections, 25 °C; one set binding model; MicroCal PEAQ-ITC

Substance: LgnA, type II thioesterase (TEII) orthologue (enzyme)
- Kd: 1700 nM
